The supplement of paper PMC12764529
± gives the half width of the 95% confidence interval.

Experiments:
[1] = folding stability dG unfold from trypsin proteolysis; higher = more stable
Outline: (§1)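 How resistant each design was to proteolysis was captured as K50, inferred by Bayesian fitting of sequencing counts. Unfolding free energy was then derived relative to a sequence-predicted unfolded-state K50 and a shared folded-state K50, per protease or combined. Digestion used trypsin and chymotrypsin at 11 threefold-diluted concentrations plus a no-protease condition, on mini-proteins under 80 residues without cysteine in a PA-tagged cDNA display construct. Designs were kept only when AlphaFold2 dimer inter-PAE was above 15.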

[2] = folding stability dG unfold from chymotrypsin proteolysis; higher = more stable
Outline: as §1

[3] = folding stability dG unfold (combined trypsin and chymotrypsin); higher = more stable
Outline: as §1

Sequence	folding stability dG unfold [1] [kcal/mol]	folding stability dG unfold [2] [kcal/mol]	folding stability dG unfold [3] [kcal/mol]
SAGTREQVKAIAREIANEIWDTFPDMRGQKFKVKIKVEPEPNGWVRVKVTIQFPGGVQYTFPIWIPVESAGG [r19_194_TrROS]	3.06 ± 0.11	4.4 ± 0.23	4.05 ± 0.23
SAGGSAGGSAGVPEGEEYLFTVKVTLTFEPVTVKDENGEEHEIDEVTITVTVTVLVKAEDSAGGSAGGSAGG [r11_907_TrROS_Hall]	2.33 ± 0.35	3.24 ± 0.12	2.93 ± 0.24
KYELVATLSRPNPETGTVVNVSVYRFEDGSYRVLVDVSTFYRTPDGSLRTSSSRAVFLVPEDVDPRELVESS [r1_243_TrMRF]	2.75 ± 0.039	3.57 ± 0.081	3.17 ± 0.11
SAGGSAGGSMKTYTLPNGLRVQLVRVDKKTKTITLKVFDKNGELVEEIEIKVDEPVELLVVYPSAGGSAGGS [r12_960_TrROS_Hall]	2.09 ± 0.061	2.69 ± 0.05	2.45 ± 0.15
SAGGSAGGSMTILEEEVVPETGLVRILVKLPNGELLELEVDPSVGVTPVKVDGKPIFDVTVDPSAGGSAGGS [r12_789_JUSTAS]	0.898 ± 0.038	1.3 ± 0.082	1.19 ± 0.11
SMTTRESTIDASIPGYTVSKVSVTTLPGGERKITITLPSGKVLVLSTPADPALVPLTVTSEFSPEEVAAKSA [r9_1075_JUSTAS]	0.634 ± 0.057	0.0702 ± 0.097	0.395 ± 0.051
SAGGSAGGSAGMTIQIEILTTGDLEETKKKLEEELKKKYPSSLKVIIKLSHVPASEAPSDLGSAGGSAGGSA [r18_498_JUSTAS]	0.969 ± 0.025	1.19 ± 0.033	1.13 ± 0.14
SAGGFRIERDGDYLRIEIRVNDPPGQPVEEAKNIMKQLFGFKDIKVDEIEPNPNGQAEIEIEIPFPKSAGGS [r16_234_TrROS]	0.658 ± 0.13	-0.3 ± 0.29	0.393 ± 0.12
SAGGSAIPGMPIKEIARALQDKFPPGKPPQIKIRNKNGETKTFEPNKTIDDIPMDGVVEIEIEFRPSAGGSA [r15_50_TrROS]	-0.52 ± 0.62	0.0124 ± 0.075	0.0509 ± 0.19
SAGGSAGGSMKVVVTAKLPGGEVLQKTIPVDESVLKKMSKEEVIELLKKEGLPENVEIKFEPKSAGGSAGGS [r12_742_JUSTAS]	1.34 ± 0.067	2.17 ± 0.15	1.81 ± 0.24
SKTIIIEVKEEKLEEIAEELAKKLEEETGYKIKKVEIILPDGTVVRIEVDAKTKKIKIEVYKLDKNGKLLSA [r9_173_TrROS_Hall]	1.15 ± 0.037	2.24 ± 0.096	1.97 ± 0.1
SAGGSAEELAKELAEKEGVKEVKVTVIKNKNGKLVLKVENKETNKTYEIELPEGAEVVEEITLKVKSAGGSA [r2_74_TrROS_Hall]	0.106 ± 0.086	1.23 ± 0.061	0.923 ± 0.1
SAGGSAGGSAMEELVKEAIKEGKPGEVVLIRNEDGSVFALTVKDGKIEIKKLEEVKEVVEESAGGSAGGSAG [r3_244_TrROS_Hall]	1.45 ± 0.09	1.06 ± 0.093	1.15 ± 0.17
SAGGSAGGSAPPVKTITVELVFFNPETQEVFVLRAEVRLLPDGTLEIRTEIERVKVEPGAVLLSAGGSAGGS [r12_116_TrROS_Hall]	1.64 ± 0.096	2.22 ± 0.11	2.09 ± 0.15
SAGGSAGGSAGGKKYKIKVYVKDKKTKKWKKIKEIEVDTKEEALEAIKKLPPNYEVKIVPSAGGSAGGSAGG [r7_307_TrROS_Hall]	4.11 ± 0.14	5.04 ± 0.068	4.91 ± 0.14
SAGGMKVRIRIEVDGKTLELELEVEPGETVKITLEVNGEEVTITFDAATGEITIELPPGAKIVEIEPSAGGS [r16_761_TrROS_Hall]	3.56 ± 0.23	4.52 ± 0.46	4.01 ± 0.39
SAGGSAGGSMRFPPGQKIEIEEWKHNPNGGNYQVSIRFKDGKKKTFTSPEDIDRLIKAGHVKISAGGSAGGS [r12_455_TrROS]	-0.0362 ± 0.26	1.33 ± 0.19	0.822 ± 0.21
SAGMPLRTVKVLVTINDKTEEKTLSEEELKALIESGELELLGKEPEENIVYVYKKVPPPVGSKTKKSLLSAG [r5_868_JUSTAS]	0.71 ± 0.29	1.94 ± 0.17	1.64 ± 0.27
SAGGSLFEKLNVKSVEVTEVKTYTLPPLPLTVEVPTVKVTLPDGTVIEFTVIKTYDPEDPTPTVTLGSAGGS [r8_422_JUSTAS]	0.822 ± 0.027	1.31 ± 0.12	1.08 ± 0.07
SAGGSAGGSAMLYRITVRNADGEKLEIVVEMSEDEVRALAEELRKAGYEVRVEPIPEGEEPSAGGSAGGSAG [r3_35_TrROS_Hall]	4.89 ± 0.21	4.79 ± 0.11	4.8 ± 0.15
SAGGSAGGSAGGSPNWKWVEMEITFNVPPGAKITIPNGIKLTVPPGDPVTIKIYIAVPPSAGGSAGGSAGGS [r4_232_TrROS]	1.94 ± 0.12	2.96 ± 0.048	2.47 ± 0.31
